The results in this text go back to IntAct's records for PubMed 12628189.

B1: Protein TEM1 (Saccharomyces cerevisiae), P38987 (parent)
chain: MATPSTGANNSIPAVRNQVEVQVGLVGDAQVGKTSLMVKYVQNIYDKEYTQTLGVNFLKRKVSIRSTDIIFSIMDLGGQREFINMLPIATVGSSVIIFLFDLTRPETLSSIKEWYRQAYGLNDSAIPILVGTKYDLLIDLDPEYQEQISRTSMKYAQVMNAPLIFCSTAKSINIQKIFKIALAKIFNLTLTIPEINEIGDPLLIYKHLGGQQHRHHNKSQDRKSHNIRKPSSSPSSKAPSPGVNT
partner: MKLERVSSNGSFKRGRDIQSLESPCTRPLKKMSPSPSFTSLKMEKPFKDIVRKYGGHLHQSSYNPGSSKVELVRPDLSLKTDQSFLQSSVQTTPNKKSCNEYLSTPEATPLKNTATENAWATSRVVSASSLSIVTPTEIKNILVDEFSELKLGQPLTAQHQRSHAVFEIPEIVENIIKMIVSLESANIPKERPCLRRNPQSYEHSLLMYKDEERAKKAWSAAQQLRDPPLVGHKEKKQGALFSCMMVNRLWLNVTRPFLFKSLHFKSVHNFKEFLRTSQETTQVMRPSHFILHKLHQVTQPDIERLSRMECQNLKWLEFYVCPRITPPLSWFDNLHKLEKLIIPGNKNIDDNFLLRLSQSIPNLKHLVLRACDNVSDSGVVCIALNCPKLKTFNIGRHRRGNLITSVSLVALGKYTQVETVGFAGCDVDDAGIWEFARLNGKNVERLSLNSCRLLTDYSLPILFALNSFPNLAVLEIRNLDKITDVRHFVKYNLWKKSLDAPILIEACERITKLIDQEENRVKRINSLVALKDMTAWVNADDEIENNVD
B2: Protein TEM1 (Saccharomyces cerevisiae), P38987 (parent)
chain: B1 chain
partner: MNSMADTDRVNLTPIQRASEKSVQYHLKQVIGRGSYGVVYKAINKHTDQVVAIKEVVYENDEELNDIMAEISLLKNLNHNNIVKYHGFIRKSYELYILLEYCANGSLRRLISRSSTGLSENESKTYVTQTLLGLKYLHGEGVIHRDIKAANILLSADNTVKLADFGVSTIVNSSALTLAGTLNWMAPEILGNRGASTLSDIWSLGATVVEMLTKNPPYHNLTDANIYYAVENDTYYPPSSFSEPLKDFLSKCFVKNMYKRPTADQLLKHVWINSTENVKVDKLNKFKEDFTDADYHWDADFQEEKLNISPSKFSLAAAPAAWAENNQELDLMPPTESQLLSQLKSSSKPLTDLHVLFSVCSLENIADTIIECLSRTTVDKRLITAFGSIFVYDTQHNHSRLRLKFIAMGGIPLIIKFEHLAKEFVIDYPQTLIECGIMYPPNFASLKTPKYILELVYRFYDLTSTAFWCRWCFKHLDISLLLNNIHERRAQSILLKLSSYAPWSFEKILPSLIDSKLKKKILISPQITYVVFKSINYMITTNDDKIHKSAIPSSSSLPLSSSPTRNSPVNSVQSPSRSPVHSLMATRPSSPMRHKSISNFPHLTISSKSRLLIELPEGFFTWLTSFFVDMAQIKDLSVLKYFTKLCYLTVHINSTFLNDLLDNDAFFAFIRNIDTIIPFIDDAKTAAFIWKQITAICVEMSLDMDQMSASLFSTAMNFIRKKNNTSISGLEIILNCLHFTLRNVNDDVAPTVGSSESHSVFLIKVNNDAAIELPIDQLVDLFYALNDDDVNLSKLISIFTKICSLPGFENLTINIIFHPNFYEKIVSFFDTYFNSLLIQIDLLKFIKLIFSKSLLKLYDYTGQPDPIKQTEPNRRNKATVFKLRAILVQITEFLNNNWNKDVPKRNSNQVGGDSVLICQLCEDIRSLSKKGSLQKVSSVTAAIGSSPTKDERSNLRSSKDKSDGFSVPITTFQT

The variants in the first test derive from B1. Particulars: with amn1_yeast AMN1, P38285.
As to T34A, the “effect of a mutation on the interaction” value is recorded as “decreasing interaction”.

In the case of D135A, the “effect of a mutation on the interaction” value is given as “disrupting interaction”.

The variants in another test derive from B2. Particulars: with cdc15_yeast CDC15, P27636.
Regarding D135A, the “effect of a mutation on the interaction” value is “disrupting interaction”.

Regarding T34A, the “effect of a mutation on the interaction” value is reported as “disrupting interaction”.
